Test results reported in the Human Domainome abundance scans (Beltran et al. 2025).
± gives the uncertainty stated by the source.

B1: PMS1 protein homolog 1, residues 572 to 637; numbered along this chain, P54277 (parent)
chain: KKPMSASALFVQDHRPQFLIENPKTSLEDATLQIEELWKTLSEEEKLKYEEKATKDLERYNSQMKR

Variants of: B1
Test: abundance fitness (aPCA) (normalised: wild type 0, dead -1); higher = more abundant; growth selection in yeast, the domain comes from the species named
Conditions: Homo sapiens

Variant	abundance fitness
KKPMSASALFVQDHRPQFLIENPKTSLEDATLQIEELWKTLSEEEWLKYEEKATKDLERYNSQMKR [K46W]	-1.17 ± 0.068
KKPMSASALFVQDHRPQFLIENPKTSLEDATLQIEEIWKTLSEEEKLKYEEKATKDLERYNSQMKR [L37I]	-0.357 ± 0.15
KKPMSASALFVQDHRPQFLIENPKTSLEDATLQIEEMWKTLSEEEKLKYEEKATKDLERYNSQMKR [L37M]	-0.319 ± 0.26
KKPMSASALFVQDHRPQFLIENPKTSLEDATLQIEELWKTLSEEEKLKYERKATKDLERYNSQMKR [E51R]	-0.048 ± 0.044
KKPMSASALFVQDHRPQFLIENPKTSLEDATLQIEELWKTLSEEEKLKYECKATKDLERYNSQMKR [E51C]	-0.215 ± 0.061
KKPMSASALFVQDHRPQFLIENPKTSLEDATLQIEELWLTLSEEEKLKYEEKATKDLERYNSQMKR [K39L]	-0.22 ± 0.18
KKPMSASALFVQDHRPQFLIENPKTSLEDATLQIEELWKTLSEEEKLKYEEKATKDLFRYNSQMKR [E58F]	-0.321 ± 0.071
KKPMSASALFVQDHRPQFLIENPKTSLEDATLQIEELWKTLSEEEKLKYEEKATKDLCRYNSQMKR [E58C]	-0.18 ± 0.13
KKPMSASALFVQDHRPQFLIENPKTSLEDATLQIEELWKTLSEEEKLKYEEKATKDLQRYNSQMKR [E58Q]	-0.005 ± 0.053
KKPMSASALFVQDHRPQFLIENPKTSLEDATLQIEELWKTLSEEEKLKYEEKATKDLARYNSQMKR [E58A]	-0.113 ± 0.059
KKPMSASALFVQDHRPQFLIENPKTSLEDATLQIEELWKTLSEEEKLKYEEKATKDLHRYNSQMKR [E58H]	-0.09 ± 0.09
KKPMSASALFVQDHRPQFLIENPKTSLEDATLQIEELWKTLSEEEKLKYEEKATKDLNRYNSQMKR [E58N]	-0.307 ± 0.12
KGPMSASALFVQDHRPQFLIENPKTSLEDATLQIEELWKTLSEEEKLKYEEKATKDLERYNSQMKR [K2G]	-0.696 ± 0.25
KRPMSASALFVQDHRPQFLIENPKTSLEDATLQIEELWKTLSEEEKLKYEEKATKDLERYNSQMKR [K2R]	-0.332 ± 0.11
KEPMSASALFVQDHRPQFLIENPKTSLEDATLQIEELWKTLSEEEKLKYEEKATKDLERYNSQMKR [K2E]	-0.433 ± 0.11
KKPMSASALFVQDHRPQFLIENPKTSLEDATLQIEELWKTLSEEEKLKYEEKATKDLERYNSHMKR [Q63H]	-0.21 ± 0.16
KKPMSASALFVQDHRPQFLIENPKTSLEDATLQIEELWKTLSEEEKLKYEEKATKDLERYNSNMKR [Q63N]	0.075 ± 0.16
KKPMSASALFVQDHRPQFLIENPKTSLEDATLQIEELWKTLSEEEKLKYEEKATKDLERYNSQKKR [M64K]	-0.349 ± 0.21
KKPMSASALFVQDHRPQFLIENPKTSLEDATLQIEELWKTLSEEEKLKYEEKATKDLERYNSQRKR [M64R]	-0.136 ± 0.083
KKPMSASALFVQDHRPQFLIENPKTSLEDATLQIEELWKTLSEEEKLKYEEKATKDLERYNSQTKR [M64T]	-0.142 ± 0.099
KKPMSASALFVQDHRPQFLIENPKTSLEDATLQIEELWKTLSEEEKLKYEEKATKDLERYNSQGKR [M64G]	-0.103 ± 0.1

Variant	abundance fitness
KKPMSASALFVQDHRPQFLIENPKTSLEDATLQIEELWKTLSEEEKLKNEEKATKDLERYNSQMKR [Y49N]	-0.717 ± 0.12
KKPMSASALFVQDHRPQFLIENPKTSLEDATLQIEELWKTLSEEEKLKDEEKATKDLERYNSQMKR [Y49D]	-0.634 ± 0.28
KKPMSASALFVQDHRPQFLIENPKTSLEDATLQIEELWKTLSEEEKLKSEEKATKDLERYNSQMKR [Y49S]	-0.676 ± 0.1
KKPMSASALFVQDHRPQFLIENPKTSLEDATLQIEELWKTLSEEEKLKYEEKATKDLERANSQMKR [Y60A]	-0.178 ± 0.091
KKPMSASALFVQDHRPQFLIENPKTSLEDATLQIEELWKNLSEEEKLKYEEKATKDLERYNSQMKR [T40N]	-0.086 ± 0.12
KKPMSASALFVQDHRPQFLIENPKTSLEDATLQIEELWKCLSEEEKLKYEEKATKDLERYNSQMKR [T40C]	0.115 ± 0.21
KKPMSASALFVQDHRPQFLIENPKTSLEDATLQIEELWKHLSEEEKLKYEEKATKDLERYNSQMKR [T40H]	-0.087 ± 0.1
KKPMSASALNVQDHRPQFLIENPKTSLEDATLQIEELWKTLSEEEKLKYEEKATKDLERYNSQMKR [F10N]	-0.655 ± 0.16
KKPMSASALFVQDHRPQFLIENPKTSLEDATLQIEELAKTLSEEEKLKYEEKATKDLERYNSQMKR [W38A]	-0.369 ± 0.22
KKPMSASALFVQDHRPQFLIENPKTSLEDATLQIEELWKTLSEEEKLKYEEKATKDMERYNSQMKR [L57M]	0.03 ± 0.086
KKPMSASALFVQDHRPQFLIENPKTSLEDATLQIEELWKTLSEEEKLKYEEKAPKDLERYNSQMKR [T54P]	-0.338 ± 0.079
KKPMSASALFVQDHRPQFLIENPKTSLEDATLQIEELWKTLSEEEKLKYEEKAKKDLERYNSQMKR [T54K]	0.046 ± 0.096
KKPMSASALFVQDHRPQFLIENPKTSLEDATLQIEELWKTLSEEEKLKYEEKASKDLERYNSQMKR [T54S]	0.015 ± 0.076
KKPMSASALFVQDHRPQFLIENPKTSLEDATLQIEELWKTYSEEEKLKYEEKATKDLERYNSQMKR [L41Y]	-0.59 ± 0.083
KKPMSASALFVQDHRPQFLIENPKTSLEDATWQIEELWKTLSEEEKLKYEEKATKDLERYNSQMKR [L32W]	-0.156 ± 0.088
KKPMSASALFVQDHRPQFLIENPKTSLEDATLQIEELWKTLSEEVKLKYEEKATKDLERYNSQMKR [E45V]	-0.169 ± 0.06
KKPMSASALFVQDHRPQFLIENPKTSLEDATLQIEELWKTLSEECKLKYEEKATKDLERYNSQMKR [E45C]	-0.327 ± 0.1
KKPMSASALFVQDHRPQFLIENPKTSLEDATLQIEELWKTLSEEEKLKYEEMATKDLERYNSQMKR [K52M]	0.102 ± 0.099
KKPMSASALFVQDHRPQFLIENPKTSLEDATLQIEELWKTLSEEEKLKYEECATKDLERYNSQMKR [K52C]	-0.076 ± 0.17
KKPMSASALFVQDHRPQFLIENPKTSLEDATLQIEELWKTLSECEKLKYEEKATKDLERYNSQMKR [E44C]	-0.155 ± 0.069
KKPMSASALFVQDHRPQFLIENPKTSLEDATLQIEELWKTLSEREKLKYEEKATKDLERYNSQMKR [E44R]	-0.124 ± 0.046

Variant	abundance fitness
KKPMSASALFVQDHRPQFLIENPKTSLEDATLQIEELWKTLSEDEKLKYEEKATKDLERYNSQMKR [E44D]	-0.081 ± 0.083
KKPMSASALFVQDHRPQFLIENPKTSLEDATLQIEELWKTLSEVEKLKYEEKATKDLERYNSQMKR [E44V]	-0.113 ± 0.057
KKPMSASALFVQDHRPQFLIENPKTSLEDATLQIEELWKTLSEEEKLKYEEKATKDLERYNSQMGR [K65G]	-0.497 ± 0.19
KKPMSASALFVQDHRPQFLIENPKTSLEDATLQIEELWKTLSWEEKLKYEEKATKDLERYNSQMKR [E43W]	-0.046 ± 0.065
KKPMSASALFVQDHRPQFLIENPKTSLEDATLQIEELWKTLSDEEKLKYEEKATKDLERYNSQMKR [E43D]	0.029 ± 0.1
KKPMSASALFVQDHRPQFLIENPKTSLEDATLQIEELWKTLSSEEKLKYEEKATKDLERYNSQMKR [E43S]	0 ± 0.051
KKPMSASELFVQDHRPQFLIENPKTSLEDATLQIEELWKTLSEEEKLKYEEKATKDLERYNSQMKR [A8E]	0.147 ± 0.31
KKPMSASALFVQDHRPQFLIENPKTSLEDATLQIEELWKTLSEEEKLWYEEKATKDLERYNSQMKR [K48W]	-0.187 ± 0.11
KKPMSASALFVQDHRPQFLIENPKTSLEDATLQIEELWKTLSEEEKLTYEEKATKDLERYNSQMKR [K48T]	-0.205 ± 0.084
KKPMSASALFVQDHRPQFLIENPKTSLEDATLQIEELWKTLSEEEKLAYEEKATKDLERYNSQMKR [K48A]	-0.095 ± 0.086
KKPMTASALFVQDHRPQFLIENPKTSLEDATLQIEELWKTLSEEEKLKYEEKATKDLERYNSQMKR [S5T]	0.095 ± 0.077
KKPMWASALFVQDHRPQFLIENPKTSLEDATLQIEELWKTLSEEEKLKYEEKATKDLERYNSQMKR [S5W]	-0.874 ± 0.2
KKPMSPSALFVQDHRPQFLIENPKTSLEDATLQIEELWKTLSEEEKLKYEEKATKDLERYNSQMKR [A6P]	-0.38 ± 0.21
KKPMSASALFVQDHRPQFLIENPKTSLEDATLQITELWKTLSEEEKLKYEEKATKDLERYNSQMKR [E35T]	-0.207 ± 0.15
KKPMSASALFVQDHRPQFLIENPKTSLEDATLQIKELWKTLSEEEKLKYEEKATKDLERYNSQMKR [E35K]	-0.26 ± 0.28
KKPMSASALFVQDHRPQFLIENPKTSLEDATLQIEELWKTLSEEEKAKYEEKATKDLERYNSQMKR [L47A]	0.058 ± 0.1
KKPMSASALFVQDHRPQFLIENPKTSLEDATLQIEELWKTLSEEEKMKYEEKATKDLERYNSQMKR [L47M]	0.017 ± 0.23
KKPMSASALFVQDHRPQFLIENPKTSLEDATLQIEELWKTLSEEEKLKYEEKCTKDLERYNSQMKR [A53C]	-0.211 ± 0.091
KKPMSASALFVQDHRPQFLIENPKTYLEDATLQIEELWKTLSEEEKLKYEEKATKDLERYNSQMKR [S26Y]	-0.861 ± 0.061
KKPMSASALFVQDHRPQFLIENPKTQLEDATLQIEELWKTLSEEEKLKYEEKATKDLERYNSQMKR [S26Q]	-0.327 ± 0.1
KKPMSASALFVQDHRPQFLIENPKTELEDATLQIEELWKTLSEEEKLKYEEKATKDLERYNSQMKR [S26E]	-0.317 ± 0.12

Variant	abundance fitness
KKPMSASALFVQDHRPQFLIENPKTSLEDATLQIEELWKTLSEEEKLKYEEKATIDLERYNSQMKR [K55I]	-0.001 ± 0.094
KKPMSASALFVQDHRPQFLIENPKTSLEDATLQIEELWKTLSEEEKLKYEEKATADLERYNSQMKR [K55A]	0.059 ± 0.098
KKPMSASALFVQDHRPQFLIENPKTSLEDATLQIEELWKTLSEEEKLKYEEKATVDLERYNSQMKR [K55V]	-0.016 ± 0.084
KKPMSASALFVQDHRPQFLIENPKTSVEDATLQIEELWKTLSEEEKLKYEEKATKDLERYNSQMKR [L27V]	-0.132 ± 0.13
KKPMSASALFVQDHRPQFLIENPKTSLEDATLVIEELWKTLSEEEKLKYEEKATKDLERYNSQMKR [Q33V]	-0.329 ± 0.17
KKPMSASALFVQDHAPQFLIENPKTSLEDATLQIEELWKTLSEEEKLKYEEKATKDLERYNSQMKR [R15A]	-0.039 ± 0.13
KKPPSASALFVQDHRPQFLIENPKTSLEDATLQIEELWKTLSEEEKLKYEEKATKDLERYNSQMKR [M4P]	-0.064 ± 0.18
KKPMSASALFVQDHRPQFLIENPKTSLEDATLQIEELWKTLSEEEKLKYEEKATKDLELYNSQMKR [R59L]	0.001 ± 0.047
KKPMSASALFVQDHRPQFLIENPKTSLEDATLQIEELWKTLSEEEKLKYEEKATKDLEEYNSQMKR [R59E]	0.05 ± 0.095
KKPMSASALFVQDHRPQFLIENPKGSLEDATLQIEELWKTLSEEEKLKYEEKATKDLERYNSQMKR [T25G]	-0.387 ± 0.094
KKPMSASALFVQDHRPQFLIENPKTSLEDATLQIEELWKTLSEEEKLKYEEKATKDLERYKSQMKR [N61K]	0.007 ± 0.093
KKPMSASALFVQDHRPQFLIENPKTSLEDATLQIEELWKTLSEEEKLKYEEKATKDLERYCSQMKR [N61C]	-0.521 ± 0.11
KKPMSASALFVQDHRPQFLIENPKTSLEDATLQIEELWKTLSEEEKLKYEEKATKDLERYDSQMKR [N61D]	-0.136 ± 0.074
KKPMSASALFVQDHRPQFLIENPKTSLEDAGLQIEELWKTLSEEEKLKYEEKATKDLERYNSQMKR [T31G]	-0.321 ± 0.14
KKPMSASALFVQDHRPQFLIENPKTSLEDAPLQIEELWKTLSEEEKLKYEEKATKDLERYNSQMKR [T31P]	-0.599 ± 0.34
KKPMSASALFVQDYRPQFLIENPKTSLEDATLQIEELWKTLSEEEKLKYEEKATKDLERYNSQMKR [H14Y]	-0.063 ± 0.089
KKPMSASALFVQDHRPQFLIENPKTSLEDTTLQIEELWKTLSEEEKLKYEEKATKDLERYNSQMKR [A30T]	-0.668 ± 0.25
MKPMSASALFVQDHRPQFLIENPKTSLEDATLQIEELWKTLSEEEKLKYEEKATKDLERYNSQMKR [K1M]	-0.057 ± 0.26
KKPMSASARFVQDHRPQFLIENPKTSLEDATLQIEELWKTLSEEEKLKYEEKATKDLERYNSQMKR [L9R]	-0.017 ± 0.076
